Laboratory results: patent publication US20190225650A1, “PEPTIDOMIMETIC MACROCYCLES AND USE THEREOF IN REGULATING HIF1ALPHA” (AILERON THERAPEUTICS, INC., priority 2013, published 2019)
Bridge positions count the residues as written; N and C are the ends. Square brackets hold non-standard residues; d marks the D form. S5 = C=CCCC[C@](C)(N)C(=O)O; Nle = CCCC[C@H](N)C(=O)O

Experiments:
[1] = target: T1, GST-tagged p300 CH1 domain (AAs 302-423) (UniProt Q09472 302-423); experiment: BLI competition, 300 nM GST-p300 CH1 on immobilised HIF1α 788-826
T1 construct: range 302-423; not shown: GST tag
Experimental: Biotinylated HIF1α peptide was captured on Ni-NTA biosensor tip. The association of 300 nM GST-tagged p300 CH1 domain (AAs 302-423) in the presence or absence of varying concentrations of SP-6 was measured for 240 s. Dissociation was monitored for a minimum of 200 s in the absence of free p300 or stapled peptide. Binding of p300 to biosensor immobilized HIF1α target was analyzed with instrument software and total response (R) was proportional to binding.
A concentration of 10 μM SP-6 blocked 99% of the total binding. The inhibition was dose-dependent, with 2 μM inhibiting 50% of p300/HIF1α binding.

[2] = target: T2, His6-tagged p300 (AA 323-423) (UniProt Q09472 323-423); experiment: TR-FRET HIF1a/p300 displacement; grade = IC50 <=200 nM
T2 construct: range 323-423; also called p300-CH; not shown: His6 tag
Experimental: The ability of peptides to displace HIF1α c-terminal trans-activation domain from p300-CH was measured by a TR FRET assay. […] The complex was diluted to 300 nM final in complete assay media and competitor peptides were added. The complete assay media contained 150 mM NaCl (Sigma +S5150 or equivalent), 20 mM HEPES pH 7.4 (Boston Bioproducts, Ashland, Mass.; #BB-2076), 7.5 mM CHAPS (Thermo #28300 or equivalent), and 1 mM DTT. Protein and peptide were incubated at room temperature for 1 hour before the addition of anti-Flag-K and anti-6×HIS-D2 (CisBio, Bedford Mass.) HTRF reconstitution buffer (50 mM Phosphate pH 7, 0.8 Potassium Flouride, BSA 0.2%)¹ to a final concentration of 0.5 μM and 4 nM respectively. The reaction continued for an additional two hours at room temperature. The reaction was read on a TECAN F500 plate reader with settings recommended by CisBio. The ratio of donor to acceptor fluorescence was calculated. The resulting data was analyzed with Graphpad Prism 5.0. IC50 values were calculated for both proteins using the One Site Fit-LogIC50 equation and presented in the column “IC₅₀ (nM) (HIF1α_p300 Displacement+CHAPS)” of Table 6. ¹ Cisbio USA, Bedford, Mass.; 61HISDLB (lot 007A), 61FG2KLB (024A), HTRF Buffer (62RB3RDF)

T2 sequence (Q09472 323-423 limits assumed): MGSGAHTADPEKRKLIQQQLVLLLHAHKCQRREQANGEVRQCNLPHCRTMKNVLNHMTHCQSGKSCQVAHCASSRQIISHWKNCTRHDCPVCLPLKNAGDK
T1 sequence (Q09472 302-423 limits assumed): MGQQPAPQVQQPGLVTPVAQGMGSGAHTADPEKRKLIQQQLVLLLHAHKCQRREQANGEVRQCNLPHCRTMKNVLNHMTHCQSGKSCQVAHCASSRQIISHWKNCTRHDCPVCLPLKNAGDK

B1: SP-6 (peptide)
peptide: Ac-FIDEEVL[Nle][S5]LVI[S5][Nle]ALDRI-NH2
modifications: staple 9-13
SMILES: CCCC[C@H](NC(=O)[C@H](CC(C)C)NC(=O)[C@@H](NC(=O)[C@H](CCC(=O)O)NC(=O)[C@H](CCC(=O)O)NC(=O)[C@H](CC(=O)O)NC(=O)[C@@H](NC(=O)[C@H](Cc1ccccc1)NC(C)=O)[C@@H](C)CC)C(C)C)C(=O)N[C@@]1(C)CCCC=CCCC[C@@](C)(C(=O)N[C@@H](CCCC)C(=O)N[C@@H](C)C(=O)N[C@@H](CC(C)C)C(=O)N[C@@H](CC(=O)O)C(=O)N[C@@H](CCCNC(=N)N)C(=O)N[C@H](C(N)=O)[C@@H](C)CC)NC(=O)[C@H]([C@@H](C)CC)NC(=O)[C@H](C(C)C)NC(=O)[C@H](CC(C)C)NC1=O
- IC50 [1]: 2000 nM
- IC50 [2]: ≤ 200 nM
